In the DeepSol protein solubility set:

Test: soluble on expression in E. coli; label from the status in PepcDB or PDB records

| Sequence | soluble on expression in E. coli |
| --- | --- |
| MAHHHHHHMLLSVLHAPRQASIAAPLHKVQSCAYAAPDTVSAVLADCLGKDIAPVLRYLTAFATPPVSKPTSHQSHHLAASTRVLRHALVLLLYSFVTTWRGAPPRETPPPPGAIALTREERALALELCRCVAALNESDTGSESIATGERRGDTSAQAHSRDARAEATGSHVTSLEAVTGAQFALVRDALADMLAPDHHSDGSAASTPVRARDSVAGNGPLWRACEAWIAGAVGTAVGASVAPPSSPFAGITGVRMKEEEAVDLLERVNDQLNQIARGGAVNAASRQCGNSAAMP | not soluble |
| MAHHHHHHMLNVVQATRMSKKQEVKAYGPNVKKGDLVYGVVHIFASFNDTFVHVTDMSGRETYVKVTGGMKVKADRDESSPYAAMMAAQDVVARCKECGINALHVKMRAVGGVRTKSPGPGRPGRPPRARPRRDEDWPHRGCHPDPDRLHPPQGFPPWSPPVRSLRPRVLRTAQQSELTLVTICWFPCVCDLLSFYCREEKKHRPQITEAR | not soluble |
| MAHHHHHHMLPFSYRVLMRGVSAVSGALSVALQHRALAGTTRSFSSSRPVWLAPAAPTKQAPPAMGGDTDAEETHPDFQPRMVSSDLAQDEIAMIKKDIDDTIRDEDVVVFIKGVPEAPMCAFSKRMIDVMEALGVEYTSFDVLAHPVVRSYVKEVSEWPTIPQLFVKGEFAGGVDIILKMAESGDLQMLLDQKSIKHRDTKP | soluble |
| MAHHHHHHMLQRSFVVRWVPRYIRQVPRVRQKKEQRDAVAMGRSKAPSKRRAECSAVSERDGGVARAAQAKRLEITEEGSTVLESPVSDVSRLLLRKAETLLDSWQKLNMTMTISGSRSDSLMGMKNSSSSQKRDAVAFMAQTEVFAVVKGMIHLSTPHEGSLNRCEEDNKHDSLRQNAFQEYRSTNIISGMVVIPDEATNDAVNYLAQIGRHRVGKVQDKVASLDDSFPISSAIFSLHEVVVFLELYNAMDCEDGELLLRLLEELRRIVFSTEKEIRTENHVLRECEEGVIPRLLLTLSSLGIVEENVLQRIVAINDGSILSRATIARYPESDLIRLLVAFNRFGLHHEPCFHVTAKTLRRNSLRNPLKSFCRNAVNCRVDAAPLGDGEKRSRIPSSMAGLTMNELLEALTAIALSLCREREVVKLLAATIVTAVEDEEYMRCSTKEKAKTREEDLGLLRTLQVHRAAKVCEQMDMPQPSLAHLLHRLSIRYGGLLADGGDVSLSPERVGFYDFITADLVKARCS | not soluble |
| MAHHHHHHMLQRSLARLCAAAQRQGNKALAAEGRSFALVNREVTAIKEHIQSLVTNTNNEVLDHAGKYVLAAGGKLMRPALVVLMAHAMLPLDVSAHLLEEPIGSLDEVTPGTILPFLRLAEVTELIHTASLLHDDVIDNTDTRRGRPALHKVYDAKRAVLAGDYMLARASFYIATLQVPRIVILMTTALEELTSGELMQMDGCFDIPRYEQKSFCKTASLIANSLASTAVLAGPGNEALEQTAFDFGKHLGIAFQILDDCLDITGDEKMLGKPKLVDMKEGIATIPVLLVARRNAKVAEMVCRRFAEPGDAEFCLEAVEKEGAVAEAMHRADEHCRLGLESLHKLHHSPARDALESALSMVMNRKS | not soluble |
| MAHHHHHHMLRFTVPALVVFQNAYAPRVLNRMTPDRMELTMLILKERKKKVRYLGSNFQGFNDRVHLFNAQGGVRRGTRYIIETHHNRIQFKHRSRNNSMVDVRAVKMAGSQYDSIGNYTRMTWDNSLCTTNLLSDPNFKRHFKNMPKEETIGVLEEWGVRYILLDEIRKP | not soluble |
| MAHHHHHHMLRKTNLFLFAASRALMSGGSSHGPTPYQDKSYPVQPHNLNELQQPPDSWRKSPIMSKLMDQSLPVYDDVVTGVGRLYWQEPARVWHLFEADDTLMLEEHDREEWNDRPYVAVNHLYEPPIGSEERPIRVEGTGNPGDQQIVLCFGNCAPHVPQSNYYMMMKGYSKTKCPMCQQWFYVHNRPWLVMHPDWTDEPAADEGPAYTFAEIEAEFDRDFHEFGVYLNAE | not soluble |
| MAHHHHHHMLRLCLALRSASVQRKPHLFRIDLTSKHTPGHLYLADRAVKSTAADPCFVCLDNAMTCQTVDSNAAVVLRSCMTKGRELFQYGRMRFQGMSAALVFRHNHLVFQGIGDASVQALEMSLQHKDVFALLGGISPHENIPEWARAVEKAIAEGDVEYVAEEMLLQLRCPTEGCTSVVAKISKFSAGLPEPPNYSHAM | not soluble |
| MAHHHHHHMMRCSRGCRRQLRPYYNLPSKSDHGRKMTGFLTPYRHWMWKQNELWRNVHEAQFEHLRKVYKRQWLESFRVNADEYIYKYNITKAAQLAQWEYEMQAQEKKRLEAKQMTEGRQALKKKHLDLLREFHERQFFFWYERASERLQSMNLIQYIPQSRVQEHIERELDKYVAGKSEAYPLNFVGQMPLVEDREGNIVEVPEGLLTNHVSEHPESTVKPHQPHESTSVSVEEQLLRTMASAREESLEEWIDDSRALSETIDDISREEEQRDEDTRVARSMEETDNEREISRRMYIDRGKTGSKAIFRRPTLSETDGGSASIPVGGVAASPADTSAPMRRRKKGKLDKAHALQEQQDAMIARMSAKSLKDGESSISIVKRGEIATSRGRIRDKAAIPTQEVLMQKPELAAGSVPNARISFKDKVDQLYHRGKYKQKKEDDNNPNEDL | not soluble |
| MAHHHHHHMMYSRLFHESLGIVIISPSRSSASPALVIADAFYSAMRLQVMLAMPFVQPRFASIFRLLLRAVPLLPPFMATFTFRRCTSDLSRRSAMRCFTARLQLLTFETLLCGSHGVLPPPARLAAACARAKEEFALQCSTSAPPPTKLTTAVVATHLLHNNLRDAAAVLASHPCQQQVLEEVRDYVRQHPGVFSVSTLTGMLEEARCVSPAAVATFLRAAVDEFLRGSSAASTVGDEATAWDAQRENLRSLVLRHIRFYPACVSFLLGSLCAVSRGCAGDREDVIEVMQIAMRERSMNPRDFGGVLDVVWKSREPRRVAMMWAWMQHTSACWDVRAASIAIMAFSELHQMDEAVACIQRLAEADGDPTIDAQVAFVRFLGVRTPSLLRYAAQLVLHWHPSGERLWRGEPQAVGMELVKICCACGERKWAVEMLEQMVATNASVPAELEAFMLRPGAAALGEHYSASVAASKTLQELFIDVPLRLPNLGEQPALVGLLLSLGMVTNRLPEVYDALEKASLTPANFQDALDCFVTGSVVKAASPVAVLACVREAGVRTGHKVPKEMESWLQLATEM | not soluble |
| MAHHHHHHMNAKNDASESLLCGGEDISALVVDLGFSTTKIGHNQEDTPRVFLRSTCGEDVSPDGGSPRGDPSPKLKFPLNLHNPKEHLRIKPLFERNPVDNTTHMNSDVFERILRYGIEGVESKRVFHCSDEIPTPVKLGGLNLKIEEHPILLSEENIHNHRVRAEMTEILFETFNIPAVYFAKKAKLTAFSLGRSNALVIDIGGSSLNVTPVYEGYVLQRNSLQFGVGGDYFDRLIYGMLRKDQVRVVPYYEQGRGGSGGLGSASASCSPSCSFSGATHHPNVHSSYEEEAILDVIRYMKESICKVRVAHQSSANKKSETTSGGLKNGKEVEPTGQTHNGAKNVNAPKWQTGQTEEEEFFELPDGVKIKTDKYRYDIAEELFRAVPSAHNFNGLPEAIVNCIISSDVDIRKELLQAIIVTGGSSLFPGLVDRLYNSLREKECFSQSIKMKILNMTSSVECLYSSWLGGSILASLGTFQQLWVSRAEYDDAGHAIVSDRCF | not soluble |
| MAHHHHHHMNEPDAALEGVVDLTSNNFDSSVGKDVAALVEFYAPWCGHCKNLVPEFAKLGRAAAGAKDKVLIAKVDATAQKDLATRFEVNGYPTILFFPAGSQKPEKYSEGREAKAFVSYLNNQIKGLNLFLPREHKYVMALDQSNFDKVALDEGKDAFVLFYAPWCGHCKRLHPSFESLAKVYQNEKDLIIANVDADDKSNSEVTKRYKVEGYPTLVFFPKGNKGNPVNYEEGRTLDDMIKFVNERTGKKRTSSGDFDKTVGVDETVTNLMKEMAQSSKNKEERERLLAQIQQAVSPKALGEGAMHYIRIATNVLENGHEYISKEHERVGRLLKGSLTGPKRDSLTIRFNILSAIKGE | soluble |
| MAHHHHHHMNHVRHALDMDNEYTMVLDIGTIRRPAAQHRSESFMAASTTEWETKVERAERLSLLEGKKGCCYFSLYPEDVSAAFHEDAKSFPDVFSVEDAFVHCARLNLPMGEVAALLPAIPTETAEQVMHNLAEKCVIASPQSLAMTFLGEMSARLPVDLDIASFIIGGCNVGLGEAAVAIGSVAALPFRSITPLTYSSVPWNEATTWSREKYAGDIARHSDLLADTLVFIEWLKLRARGESTAEFLNTILVQEFKFVKIEGLMKYIREQLTNYVFLDRFDTLELLEDVSTSVQENSTIFLFLQAVALARRAAFIRDAGHLNEKDRYASMAFVRTSKRLMPHNYIPSSIKWDTGRILIPVILKNSTNILAGLFSLIHTPYFFASLLLLYPYVEYSKPVITDKGRVVYFGVSCNRQMKRFMVSIEEAAQILDFREKINLALSCMQALRTLSHPILKTKFLLILKKHDRLFDVERLHKNIRSQLLELVTELNVTEHQGSFETFATHCTAPKELLPMTDTPAMDVSVLRRFVDGTLWDSLPTPGSVVKPRAASFAGTPSTLPSAPLISTNDEDDDEEVEIIQDSYFMRHGPLIEDDDDD | not soluble |
| MAHHHHHHMNIFKNIYNTEMMSNNNTVDVNMMDNNPAARLEELRTIMKKNKIDVYILINSDEHNSEIINEKDKKIVKITNYSGADGILIVTKDKPILYVNALYELQAMNELDQNLFTLRISRIDNRDEIFETISSLEFNTIAFDGKNTSVVFYEKLRKALLNAYPKKKIVEKIIYNNNFDDVNKKDDENVLNFLVLEKSLVEIKDYPVNNKTLYIHDRKYNGACAGEKIDKLKQSLMYDIKNVDNLLLSELDEIAYLLNLRGYDYQYSPLFYSYLLFQFDREEQDFSKIVFFTTVKNLPADVKNLLEINKVIVKEYEEIVPYLRDVVIPSIPKHNDDNPDFKKYDISLSPYINLMIYKLFDRKNVLLQNSPVVKMKAVKNDVEIDNMKQAHILDGLALLQFFHWCEQKRKTKELFNETEMSLRHKVDYFRSTKKNFIFPSFSTISASGPNAAVIHYECTDKTNATIKPAIYLLDSGGQYLHGTTDVTRTTHFGEPTAEEKRIYTLVLKGHLRLRKVIFASYTNSSALDFIARENLFNNFMDYNHGTGHGVGLTLNVHEGGCSIGPVGGAPLKKNMVLSNEPGYYMKDKFGVRIENMQYVISKEITDTTEYLSFDDLTMYPYEKKLLDFSLLTNQEIKELNEYHTTIRNTLLPLVKQSPQEYGESVEKYLIEITEPIAIHNN | soluble |
| MAHHHHHHMNKSTVAGELRNIFSQGTNAYTVELYNAFYRDGTLSLVMEYMDWGNLEELIAICPTIPEPACAYIASQILHALQILHTKANHPTETDKKGRRQIHRDIKPANVMLSKNGVVKLTDFGIAASAETIGVNSFVGTATYMSPERIQGRNYSTPSDIWSVGVLTAQLLLGRFPFSAAEGGFMALLRQVTECCSLSLVDQCACSQKAEDFINHCICRNPDDRSTAIELLQHEWIVQNASNGKDVLTGLLGTVGEPAASSESDNS | not soluble |
| MAHHHHHHMNPHQVNPSDQIAELVVESPHFSFNCAHFIAFKGFRETLHGHNYNVSLKLRGYIQQDGYVIDFSILKEKLKRVCKQLDHHFILPMYSDVLNIQMLEDNFKIICEDKSEYSFPKRDCVQIPIKHSSTEEIGLYILNKIIEELGLPFLKARSVNYMEVTVSESPTQKATVHRNI | not soluble |
| MAHHHHHHMNRENLEELKILNLKNDKQPIYNFRCKHCNYVLFNDNEIIKHDFKISKIKKNYGNSCTSIFIEKKEWILTENKMKGVLNCPNCNIKLGKWSWTGICCSCGYLQIPAFMINSSNVDRMNISKTV | soluble |
